Blank lines part the entries; values can stand above or below the molecule they belong to. Where no end group is shown, it is not given here.
Columns and labels:
[1] = tested on: U937 macrophage-like cells on a monolayer of HUVECs; assay: Transmigration assay of U937 cells across a HUVEC monolayer (Transwell); assay type: cell-based, human; details: presence of PKC inhibitor vs DMSO
Experimental: The upper inserts (5.0 μm pore size) of Chemotaxicells (Kurabo Industries, Ltd) were coated with 100 μg fibronectin (Sigma-Aldrich). HUVECs were seeded on the insert and cultured for 48 h to form an endothelial monolayer. […] The number of U937 cells that migrated into the lower wells was counted using the Counting chamber (ERMA Inc).

RhoA = assay: Pull-down assay for GTP-bound active RhoA in HUVECs; assay type: cell-based, human; details: presence of PKC inhibitor vs DMSO
Experimental: These experiments were performed as described previously with some modifications ([70]). Briefly, total cell lysates were obtained using the RIPA lysis buffer (50 mmol/l Tris-HCl [pH 7.5], 150 mmol/l NaCl, 0.5% deoxycholate sodium, 0.1% SDS, 1% Nonidet P-40, and 100 mM PMSF). The samples were separated by SDS-PAGE and blotted on a polyvinylidene difluoride membrane. The membrane was sequentially incubated with primary Ab and horseradish peroxidase (HRP)-labeled secondary Ab, followed by treatment with HRP substrate (Luminata Forte, Millipore Corp). The target protein band was observed using the luminescent image analyzer LAS-4000 (Fujifilm Life Science). The pull-down assay was performed as described previously with some modifications ([71]). Briefly, the cell lysates were incubated with glutathione S-transferase-fused mDia Rho-binding domain and glutathione-sepharose beads (GE Healthcare) at 2 °C to collect active GTP-bound RhoA.

SGLT2 = details: cited from earlier work
Excerpt: DM patients have a high mortality rate, mainly due to DM-related heart and/or kidney failure ([35], [43]). Pathologically, heart dysfunction exacerbates kidney damage, while renal injury negatively affects cardiac function. […] To reduce diabetic complications in tissues and organs, particularly in the heart and kidney, great effort has been made to develop effective medicines and therapeutics for DM. Among these, much attention ...

C3a receptor (C3aR) = target: T1, C3a receptor (C3aR) (Homo sapiens, UniProt Q16581); assay: Cell surface attachment of FITC-Peptide 2 on HUVECs through C3aR; assay type: binding; details: C3aR-knockdown (siC3aR #2) vs scramble RNA-transfected HUVECs; 2 h at 4 °C
T1 construct: host or cells: HUVECs
T1 sequence (Q16581 1-482): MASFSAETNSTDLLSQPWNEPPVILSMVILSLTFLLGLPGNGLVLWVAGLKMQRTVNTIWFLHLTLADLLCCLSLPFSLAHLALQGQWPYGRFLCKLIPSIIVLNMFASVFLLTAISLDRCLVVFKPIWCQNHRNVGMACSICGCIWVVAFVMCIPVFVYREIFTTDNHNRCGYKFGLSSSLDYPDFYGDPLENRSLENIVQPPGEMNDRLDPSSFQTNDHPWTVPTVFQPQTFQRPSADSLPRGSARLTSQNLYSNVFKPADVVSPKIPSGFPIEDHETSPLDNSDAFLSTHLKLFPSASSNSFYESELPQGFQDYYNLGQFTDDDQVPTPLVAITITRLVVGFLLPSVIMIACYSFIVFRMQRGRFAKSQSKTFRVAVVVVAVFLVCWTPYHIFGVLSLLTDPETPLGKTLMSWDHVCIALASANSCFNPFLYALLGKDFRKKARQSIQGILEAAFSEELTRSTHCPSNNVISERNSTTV
Experimental: The expression level of C3a receptor 1 (C3aR) was evaluated by semiquantitative PCR. mRNA was extracted using TRIzol RNA isolation reagent (Thermo Fisher Scientific), and cDNA was synthesized using ReverTra Ace (Toyobo). PCR was performed using rTaq DNA polymerase (TaKaRa Bio Inc). The band densities of PCR products were quantified using the ImageJ software. The mRNA expression level of C3aR was adjusted to that of β-actin as an internal control. Primer sequences for the experiments were as follows: C3aR forward 5′-[…]-3′ and reverse 5′-[…]-3′; β-actin forward 5′-[…]-3′ and reverse 5′-[…]-3′. To silence C3aR expression in HUVECs, siRNA against C3aR (#1: 5′-[…]-3′, #2: 5′-[…]-3′) was transfected into the cells with RNAiMAX (Thermo Fisher Scientific), and the cells were cultured for 2 days.
FITC-conjugated Peptide 2 was generated by Biologica Co. HUVECs, in which C3aR was or was not knocked down, were incubated with the indicated concentrations of FITC-Peptide 2 for 2 h at 4 °C. Subsequently, the cells were washed with PBS three times and labeled with tetramethylrhodamine-WGA (Thermo Fisher Scientific). Following fixation with 4% paraformaldehyde, the attached peptides on the cell surface were observed using a Leica SP8 microscope (Leica Microsystems).

db/m mice = assay: Peptide 2 or control peptide administration for 8 weeks in nondiabetic db/m mice; assay type: in vivo, mouse; details: for Heart rate during echocardiography: db/m mice, isoflurane anesthesia, average ± SD, n= 7
db/db mice [2] = details: mouse, in vivo, iv
Experimental: We examined the in vivo cytotoxicity of Peptide 2 by intravenous injection of this peptide (0.5 μg/g body weight) into mice.
Following euthanasia of the mice by cervical dislocation, they were perfused with PBS, and the heart and kidney were extracted. The extracted organs were snap-frozen in liquid nitrogen within a block of water-soluble medium (Surgipath FSC 22, Leica Biosystems) or fixed with 4% paraformaldehyde and subsequently embedded in paraffin blocks. Regarding the frozen samples, they were sectioned in 10 μm thick using a cryostat (Leica Biosystems), fixed with 4% paraformaldehyde on top of poly-L-lysine-coated slides, permeabilized with 0.1% Triton X-100, and blocked with 1% bovine serum albumin (BSA). Primary antibodies (Abs) (see below) were applied in the BSA blocking solution at 4 °C overnight, followed by 1 h incubation at room temperature with fluorescent dye-labeled secondary Abs. Paraffin sections, 4 μm thick, were stained with H-E, WGA (1:500 dilution) (Thermo Fisher Scientific) or Sirius red (1:1000 dilution) (Fujifilm Wako Pure Chemical Corporation) using standard techniques. Confocal images were taken using a Leica SP8 microscope (Leica Microsystems). […] As described previously ([68]), at least three random fields were selected from the four sections in each heart to quantify the extent of fibrotic or immunopositive area using ImageJ software.

db/db mice [3] = tested on: db/db mice
[4] = tested on: AngII-stimulated hypertensive mice; details: AngII-stimulated hypertensive vs normotensive mice; cited from earlier work
[5] = nondiabetic db/m mice, 8-week administration
[6] = DPPIII 10 μg/g iv, after 8 weeks
[7] = DPPIII 10 μg/g iv, after 8 weeks, vs PBS

Molecule: Cn1c2ccccc2c2c3c(c4c5ccccc5n(CCC#N)c4c21)CNC3=O [PKC inhibitor, Gö6976]
Effect on Peptide-2-induced U937 transendothelial migration [1]: inhibited in the presence of PKC inhibitor
Effect on Peptide-2-induced RhoA activation (RhoA): inhibited in the presence of PKC inhibitor

Molecule: Cc1ccc([C@@H]2O[C@H](CO)[C@@H](O)[C@H](O)[C@H]2O)cc1Cc1ccc(-c2ccc(F)cc2)s1 [canagliflozin]
Heart failure and DKD in DM patients (SGLT2): improves heart failure and DKD

Molecule: FITC-Peptide 2: fluorescein isothiocyanate (FITC)-conjugated Peptide 2 (RLLWENGNL; also: FITC-conjugated, position not given here)
FITC-Peptide 2 attachment on the cells (fluorescence microscopy) (C3a receptor (C3aR)): significantly reduced in C3aR-knockdown HUVECs

Molecule: IAFSQYLQK [control peptide, reference compound]
Heart rate during echocardiography (db/m mice; week 0): 410 ± 30
Heart rate during echocardiography (db/m mice; week 4): 423 ± 32
Heart rate during echocardiography (db/m mice; week 8): 407 ± 30

Deteriorative effects on the organs (heart and kidney) (db/m mice; [5]): not observed in db/m mice
Desmin deposition and microvasculature disruption in the glomeruli (db/db mice [2]): highly enhanced
Molecule: RLLWENGNL [Peptide 2]
Heart rate during echocardiography (db/m mice; week 0): 417 ± 32
Heart rate during echocardiography (db/m mice; week 4): 402 ± 41
Heart rate during echocardiography (db/m mice; week 8): 414 ± 42
Body weight, blood glucose level, or hemodynamics (db/m mice; [5]): did not affect

B1: dipeptidyl peptidase III (protein, UniProt Q9NY33 2-737, looked up)
Dipeptidyl peptidase 3: ADTQYILPNDIGVSSLDCREAFRLLSPTERLYAYHLSRAAWYGGLAVLLQTSPEAPYIYALLSRLFRAQDPDQLRQHALAEGLTEEEYQAFLVYAAGVYSNMGNYKSFGDTKFVPNLPKEKLERVILGSEAAQQHPEEVRGLWQTCGELMFSLEPRLRHLGLGKEGITTYFSGNCTMEDAKLAQDFLDSQNLSAYNTRLFKEVDGEGKPYYEVRLASVLGSEPSLDSEVTSKLKSYEFRGSPFQVTRGDYAPILQKVVEQLEKAKAYAANSHQGQMLAQYIESFTQGSIEAHKRGSRFWIQDKGPIVESYIGFIESYRDPFGSRGEFEGFVAVVNKAMSAKFERLVASAEQLLKELPWPPTFEKDKFLTPDFTSLDVLTFAGSGIPAGINIPNYDDLRQTEGFKNVSLGNVLAVAYATQREKLTFLEEDDKDLYILWKGPSFDVQVGLHELLGHGSGKLFVQDEKGAFNFDQETVINPETGEQIQSWYRSGETWDSKFSTIASSYEECRAESVGLYLCLHPQVLEIFGFEGADAEDVIYVNWLNMVRAGLLALEFYTPEAFNWRQAHMQARFVILRVLLEAGEGLVTITPTTGSDGRPDARVRLDRSKIRSVGKPALERFLRRLQVLKSTGDVAGGRALYEGYATVTDAPPECFLTLRDTVLLRKESRKLIVQPNTRLEGSDVQLLEYEASAAGLIRSFSERFPEDGPELEEILTQLATADARFWKGPSEAPSGQA
notes: aminopeptidase that cleaves specific dipeptides from the N terminus of relatively small peptides
Body weight and blood glucose level (increase during the experimental period) (db/db mice [3]; DPPIII 10 μg/g body weight iv three times weekly for 8 weeks, vs PBS): unaffected by DPPIII treatment
Left ventricular dimensions and systolic functions (echocardiography) (db/db mice [3]; DPPIII 10 μg/g iv, 8 weeks): not significantly changed
Urine albumin excretion (albuminuria) (db/db mice [3]; DPPIII 10 μg/g iv, 8 weeks, 24 h urine, SDS-PAGE, Coomassie staining): the increase was blocked by DPPIII treatment
Cardiac diastolic functions (pulse-wave and tissue Doppler echocardiography) (db/db mice [3]; DPPIII 10 μg/g iv, 8 weeks, vs PBS): improved the impaired diastolic functions
Desmin deposition in the glomeruli (db/db mice [3]; [6]): almost totally reversed by DPPIII treatment
Disruption of glomerular microvasculature (CD31 staining) (db/db mice [3]; [6]): recovered
Morphology and size of cardiomyocytes (H-E and WGA staining) (db/db mice [3]; [6]): unchanged by DPPIII treatment
Plasma cholesterol or triglyceride levels (db/db mice [3]; [6]): no effects
Podocyte foot process damage (electron microscopy) (db/db mice [3]; [6]): ameliorated by DPPIII treatment
Cardiac fibrosis (Sirius red staining) (db/db mice [3]; [7]): reduced by DPPIII treatment
Infiltration of CD68-positive inflammatory cells in the heart (db/db mice [3]; [7]): reversed
Plasma concentration of Peptide 2 (SRM) (db/db mice [3]; after 8-week DPPIII administration, vs PBS-infused db/db mice): clearly reduced
Blood-pressure-lowering effect [4]: BP-lowering effects were observed specifically in AngII-stimulated hypertensive mice, but not in normotensive mice
